Test results published in publication PMC12507517, “Teamwork of clustered low-affinity κB sites and accessory factors regulates transcriptional strength of NF-κB RelA dimers”.
Where a chain is given by its changes, count along the chain named.

Key:
[1] = biological target: T1, p50:RelA heterodimer, RelA chain;p50:RelA heterodimer, p50 chain (;, UniProt Q04206;P19838 1-551;1-435, |); assay: EMSA; EMSA: 10 mM Tris-HCl pH 7.5, 50 mM NaCl, 10% glycerol, 1% NP-40, 1 mM EDTA, 0.1 mg/mL salmon sperm DNA, room temp; BLI: 25 mM Tris-HCl pH 7.5, 150 mM NaCl, 0.02% Tween 20, 0.1 mg/mL salmon sperm DNA, 1 mM DTT; conditions: protein: recombinant;recombinant; tags: His;His; copies: 1;1; label: 32P
T1 sequence (Q04206 whole entry, chain 1 of 2): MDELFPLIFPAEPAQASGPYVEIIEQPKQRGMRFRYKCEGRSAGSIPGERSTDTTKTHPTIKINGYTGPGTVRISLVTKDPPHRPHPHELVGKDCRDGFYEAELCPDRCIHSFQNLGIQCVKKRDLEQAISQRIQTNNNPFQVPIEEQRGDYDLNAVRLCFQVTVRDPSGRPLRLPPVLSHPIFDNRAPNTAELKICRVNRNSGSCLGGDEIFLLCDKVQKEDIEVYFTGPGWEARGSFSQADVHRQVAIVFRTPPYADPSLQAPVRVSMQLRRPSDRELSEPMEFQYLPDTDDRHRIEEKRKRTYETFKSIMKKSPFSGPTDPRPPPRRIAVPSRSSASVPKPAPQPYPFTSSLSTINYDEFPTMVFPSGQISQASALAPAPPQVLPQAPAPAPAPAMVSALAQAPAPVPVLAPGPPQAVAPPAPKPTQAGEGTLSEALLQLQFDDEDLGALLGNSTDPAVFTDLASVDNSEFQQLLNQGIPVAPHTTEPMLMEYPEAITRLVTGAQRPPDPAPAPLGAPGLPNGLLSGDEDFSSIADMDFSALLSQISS
T1 sequence (P19838 1-435, chain 2 of 2): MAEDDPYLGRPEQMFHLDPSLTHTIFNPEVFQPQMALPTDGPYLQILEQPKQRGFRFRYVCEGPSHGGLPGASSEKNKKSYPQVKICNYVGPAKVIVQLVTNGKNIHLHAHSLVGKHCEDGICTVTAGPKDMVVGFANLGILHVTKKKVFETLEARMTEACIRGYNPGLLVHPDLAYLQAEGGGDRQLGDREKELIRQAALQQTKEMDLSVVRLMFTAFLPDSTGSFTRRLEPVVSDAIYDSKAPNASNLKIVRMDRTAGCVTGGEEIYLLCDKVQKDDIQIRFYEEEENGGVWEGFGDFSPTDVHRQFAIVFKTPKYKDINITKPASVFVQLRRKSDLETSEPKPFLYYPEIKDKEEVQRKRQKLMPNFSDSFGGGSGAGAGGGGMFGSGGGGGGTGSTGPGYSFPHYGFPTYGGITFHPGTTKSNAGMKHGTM

[2] = biological target: T2, Nfatc1 (affinity-purified) (UniProt O95644 1-698); assay: as above; conditions: protein: recombinant; label: 32P
T2 sequence: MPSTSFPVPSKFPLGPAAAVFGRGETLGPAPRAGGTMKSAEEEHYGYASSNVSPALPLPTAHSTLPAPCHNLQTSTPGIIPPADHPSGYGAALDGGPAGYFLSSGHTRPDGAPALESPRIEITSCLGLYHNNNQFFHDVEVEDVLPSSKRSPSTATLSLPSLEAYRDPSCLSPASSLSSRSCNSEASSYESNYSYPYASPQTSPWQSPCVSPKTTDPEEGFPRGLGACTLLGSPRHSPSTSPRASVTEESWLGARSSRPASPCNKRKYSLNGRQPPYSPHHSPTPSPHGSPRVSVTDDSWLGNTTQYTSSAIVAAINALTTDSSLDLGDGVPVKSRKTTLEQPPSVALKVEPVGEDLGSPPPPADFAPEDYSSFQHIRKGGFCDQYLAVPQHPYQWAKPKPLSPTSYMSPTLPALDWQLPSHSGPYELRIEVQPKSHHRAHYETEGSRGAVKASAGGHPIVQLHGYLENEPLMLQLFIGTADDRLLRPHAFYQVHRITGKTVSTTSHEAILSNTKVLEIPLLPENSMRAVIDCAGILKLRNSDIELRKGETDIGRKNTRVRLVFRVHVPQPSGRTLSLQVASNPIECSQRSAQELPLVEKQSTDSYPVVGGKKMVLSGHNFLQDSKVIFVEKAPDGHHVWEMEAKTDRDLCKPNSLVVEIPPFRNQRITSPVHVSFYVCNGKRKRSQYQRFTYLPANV

RelA homodimer [3] = biological target: T3, RelA homodimer (UniProt Q04206 1-551); assay: as above; conditions: protein: recombinant; tags: His; chain copies: 2; label: 32P
T3 sequence (Q04206 whole entry): as the sequence (Q04206 whole entry, chain 1 of 2) above

[4] = biological target: T4, Tead3 (affinity-purified) (UniProt Q99594 1-435); assay: as above; conditions: protein: recombinant; label: 32P
T4 sequence (Q99594 whole entry): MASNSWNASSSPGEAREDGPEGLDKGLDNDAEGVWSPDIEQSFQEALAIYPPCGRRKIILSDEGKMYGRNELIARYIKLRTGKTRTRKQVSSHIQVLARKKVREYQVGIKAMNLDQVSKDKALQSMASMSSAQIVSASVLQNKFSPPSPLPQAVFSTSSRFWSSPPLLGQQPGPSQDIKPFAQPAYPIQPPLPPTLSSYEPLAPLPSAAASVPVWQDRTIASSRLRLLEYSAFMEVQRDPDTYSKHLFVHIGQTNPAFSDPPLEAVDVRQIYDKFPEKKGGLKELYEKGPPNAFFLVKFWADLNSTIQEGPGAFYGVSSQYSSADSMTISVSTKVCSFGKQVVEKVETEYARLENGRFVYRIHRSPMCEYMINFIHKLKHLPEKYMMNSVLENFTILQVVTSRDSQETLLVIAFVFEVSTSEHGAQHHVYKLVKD

[5] = biological target: T4, Tead3 (affinity-purified); assay: EMSA; strong site only; EMSA: 10 mM Tris-HCl pH 7.5, 50 mM NaCl, 10% glycerol, 1% NP-40, 1 mM EDTA, 0.1 mg/mL salmon sperm DNA, room temp; BLI: 25 mM Tris-HCl pH 7.5, 150 mM NaCl, 0.02% Tween 20, 0.1 mg/mL salmon sperm DNA, 1 mM DTT; conditions: protein: recombinant; label: 32P
[6] = biological target: T1, p50:RelA heterodimer, RelA …; assay: EMSA; no discernible effect of mutation; EMSA: 10 mM Tris-HCl pH 7.5, 50 mM NaCl, 10% glycerol, 1% NP-40, 1 mM EDTA, 0.1 mg/mL salmon sperm DNA, room temp; BLI: 25 mM Tris-HCl pH 7.5, 150 mM NaCl, 0.02% Tween 20, 0.1 mg/mL salmon sperm DNA, 1 mM DTT; conditions: protein: recombinant;recombinant; tags: His;His; copies: 1;1; label: 32P
RelA homodimer [7] = biological target: T3, RelA homodimer; assay: as above; conditions: protein: recombinant; tags: His; chain copies: 2; label: 32P
[8] = biological target: T4, Tead3 (affinity-purified); assay: EMSA; weak site only; EMSA: 10 mM Tris-HCl pH 7.5, 50 mM NaCl, 10% glycerol, 1% NP-40, 1 mM EDTA, 0.1 mg/mL salmon sperm DNA, room temp; BLI: 25 mM Tris-HCl pH 7.5, 150 mM NaCl, 0.02% Tween 20, 0.1 mg/mL salmon sperm DNA, 1 mM DTT; conditions: protein: recombinant; label: 32P
[9] = biological target: T1, p50:RelA heterodimer, RelA …; assay: EMSA; binding retained; EMSA: 10 mM Tris-HCl pH 7.5, 50 mM NaCl, 10% glycerol, 1% NP-40, 1 mM EDTA, 0.1 mg/mL salmon sperm DNA, room temp; BLI: 25 mM Tris-HCl pH 7.5, 150 mM NaCl, 0.02% Tween 20, 0.1 mg/mL salmon sperm DNA, 1 mM DTT; conditions: protein: recombinant;recombinant; tags: His;His; copies: 1;1; label: 32P
RelA homodimer [10] = biological target: T3, RelA homodimer; assay: as above; conditions: protein: recombinant; tags: His; chain copies: 2; label: 32P
Nfat5 RHR WT = biological target: T5, Nfat5 RHR WT (UniProt O94916 264-544); assay: EMSA; no observable binding; EMSA: 10 mM Tris-HCl pH 7.5, 50 mM NaCl, 10% glycerol, 1% NP-40, 1 mM EDTA, 0.1 mg/mL salmon sperm DNA, room temp; BLI: 25 mM Tris-HCl pH 7.5, 150 mM NaCl, 0.02% Tween 20, 0.1 mg/mL salmon sperm DNA, 1 mM DTT; conditions: protein: recombinant; chain copies: 2; label: 32P
T5 sequence: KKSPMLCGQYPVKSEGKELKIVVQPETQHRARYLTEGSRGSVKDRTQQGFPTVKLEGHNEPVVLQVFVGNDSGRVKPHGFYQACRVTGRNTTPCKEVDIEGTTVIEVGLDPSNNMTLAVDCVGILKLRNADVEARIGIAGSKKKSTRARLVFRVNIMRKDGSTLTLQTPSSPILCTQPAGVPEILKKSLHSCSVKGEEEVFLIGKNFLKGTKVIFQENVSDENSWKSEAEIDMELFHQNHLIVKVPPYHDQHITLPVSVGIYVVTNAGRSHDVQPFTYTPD

Nfat5 RHR mutant = biological target: T6, Nfat5 RHR mutant (UniProt O94916 264-544, R295S;Y296S); assay: as above; conditions: protein: recombinant; chain copies: 2; label: 32P
T6 sequence: T5 sequence with R32S, Y33S

B1: 2DM Cxcl2 probe (both sites mutated) (dsDNA)
DNA 1: TCGACATGAGGGGACCCTGAGCTCAGCTAATTTGACTGGTCCCCGGGCTTTTGGAG
DNA 2: CTCCAAAAGCCCGGGGACCAGTCAAATTAGCTGAGCTCAGGGTCCCCTCATGTCGA
binding result [1]: no binding | binding result [2]: no binding | binding result (RelA homodimer [3]): no binding | binding result [4]: no binding

B2: 2WT Cxcl2 probe (dsDNA)
DNA 1: B1 DNA 1 with C27G, T28G, G34C, A35C, G53C, G54C
DNA 2: B1 DNA 2 with C3G, C4G, T22G, C23G, A29C, G30C
binding result [2]: binds | binding result [4]: binds

B3: 2ΔW Cxcl2 probe (weak site mutated) (dsDNA)
DNA 1: B1 DNA 1 with C27G, T28G, G34C, A35C
DNA 2: B1 DNA 2 with T22G, C23G, A29C, G30C
binding result [2]: binds | binding result [5]: binds | binding result [6]: binds | binding result (RelA homodimer [7]): binds

B4: 2ΔS Cxcl2 probe (strong site mutated) (dsDNA)
DNA 1: B1 DNA 1 with G53C, G54C
DNA 2: B1 DNA 2 with C3G, C4G
binding result [2]: binds | binding result [8]: no binding | binding result [9]: binds | binding result (RelA homodimer [10]): binds

B5: Nfat EMSA probe (dsDNA)
DNA 1: B1 DNA 1 with C27G, T28G, G34C, A35C, G53C, G54C
DNA 2: B1 DNA 2 with C3G, C4G, T22G, C23G, A29C, G30C
binding result (Nfat5 RHR WT): no binding | binding result (Nfat5 RHR mutant): no binding
